Data reported in patent publication US8212003.

Tested on: fusion protein SFH (SAK-GSIEGR-HV2)

## blood coagulant factor FXa
  Anticoagulant activities (clot method) after cleavage of SFH with 0.2 U of FXa for 10 min at 37° C.: 2560 ATU
